In this test the target is T1, cynomolgus LAG-3 on CHO cells (cynomolgus).
T1 construct: whole, on cells; also called CHO::cyLAG-3; CHO cells transfected with cynomolgus LAG-3
The test is described as follows: FACS on CHO cells transfected with cynomolgus LAG-3.

This is an account of results in patent US20190031729A1 (Pieris, published 2019).

Method: 5×10⁴ cells per well were pre-incubated for 1 h in ice-cold PBS containing 5% fetal calf serum (PBS-FCS). […] Cells were washed twice in ice-cold PBS using centrifugation at 300×g and then incubated with a rabbit anti-lipocalin primary antibody (polyclonal rabbit anti-hTlc, Pieris) for 30 min on ice. Cells were then again washed twice in ice-cold PBS, re-suspended in PBS-FCS and incubated 30 min on ice with an antibody labelled with Alexafluor647 (Jackson Immunologics). Cells were subsequently washed and analyzed using intellicyt IQue Flow cytometer (Intellicyt). Fluorescent data generated by lipocalin mutein binding to LAG-3 expressing cells were analyzed using Forecyt software and resulted geometric fluorescent mean were plotted and fitted using Graphpad software.

B1: benchmark anti-LAG-3 antibody, BMS 986016 (SEQ ID NOs: 5 and 6) (antibody, V domains shown)
VH: QVQLQQWGAGLLKPSETLSLTCAVYGGSFSDYYWNWIRQPPGKGLEWIGEINHRGSTNSNPSLKSRVTLSLDTSKNQFSLKLRSVTAADTAVYYCAFGYSDYEYNWFDPWGQGTLVTVSS
VL: EIVLTQSPATLSLSPGERATLSCRASQSISSYLAWYQQKPGQAPRLLIYDASNRATGIPARFSGSGSGTDFTLTISSLEPEDFAVYYCQQRSNWPLTFGQGTNLEIKR
B1 yielded an EC50 of 21 nM.

One may read the EC50 as the concentration at which the effect is half-maximal. Lower therefore signals greater potency.
